1 molecule from publication PMC3360035 (PLoS ONE, 2012) can be followed below.

For this experiment, the target named is Human γD-crystallin I90F (human, UniProt P07320 1-174, I90F). Kind of experiment: cell-based or functional assay.

B1: αB-crystallin, wild type (natural protein, UniProt P02511 1-175, looked up)
chain: MDIAIHHPWIRRPFFPFHSPSRLFDQFFGEHLLESDLFPTSTSLSPFYLRPPSFLRAPSWFDTGLSEMRLEKDRFSVNLDVKHFSPEELKVKVLGDVIEVHGKHEERQDEHGFISREFHRKYRIPADVDPLTITSSLSSDGVLTVNGPRKQVSGPERTIPITREEKPAVTAAPKK
Take B1: the “suppression of aggregation on dilution out of 5 M GdnHCl (from maximum A350), αB in 5-fold molar excess” value came to 70%.
